Measured values reported in patent US20060040323A1 (SCIENCE AND TECHNOLOGY CORPORATION UNM, published 2006).

T1: murine PF4 complexed to heparin (murine, UniProt Q9Z126 30-105)
T1 construct: mature; Complexed to heparin in the ELISA; also called mPF4; mouse PF4
T1 sequence (looked up): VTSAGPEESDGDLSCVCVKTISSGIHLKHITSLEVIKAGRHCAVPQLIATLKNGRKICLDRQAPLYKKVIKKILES

T2: hNAP-2 complexed to heparin (human, UniProt P02775 59-128)
T2 construct: mature; Complexed to heparin in the ELISA; NAP-2 is its C-terminal product
T2 sequence (looked up): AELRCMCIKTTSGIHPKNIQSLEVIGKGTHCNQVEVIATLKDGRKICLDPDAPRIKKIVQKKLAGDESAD

T3: hIL-8 complexed to heparin (human, UniProt P10145 21-99)
T3 construct: mature; Complexed to heparin in the ELISA
T3 sequence (looked up): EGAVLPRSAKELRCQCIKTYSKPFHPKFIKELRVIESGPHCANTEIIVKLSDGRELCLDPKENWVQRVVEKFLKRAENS

T4: hPF4/heparin complex (human, UniProt P02776 32-101)
T4 construct: hPF4 (10 micrograms per milliliter) complexed with heparin (0.2 Units/milliliter in the standard ELISA); heparin is a glycosaminoglycan and not a protein chain; also called P/H
T4 sequence (looked up): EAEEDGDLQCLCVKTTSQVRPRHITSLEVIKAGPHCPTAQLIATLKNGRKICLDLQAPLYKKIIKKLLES


Columns and labels:
[1] = molecular target: platelet Fc-gamma RIIA (human) (UniProt P12318); test: cell-based or functional assay
Chain of platelet Fc-gamma RIIA (human) (P12318 34-317, form in doubt): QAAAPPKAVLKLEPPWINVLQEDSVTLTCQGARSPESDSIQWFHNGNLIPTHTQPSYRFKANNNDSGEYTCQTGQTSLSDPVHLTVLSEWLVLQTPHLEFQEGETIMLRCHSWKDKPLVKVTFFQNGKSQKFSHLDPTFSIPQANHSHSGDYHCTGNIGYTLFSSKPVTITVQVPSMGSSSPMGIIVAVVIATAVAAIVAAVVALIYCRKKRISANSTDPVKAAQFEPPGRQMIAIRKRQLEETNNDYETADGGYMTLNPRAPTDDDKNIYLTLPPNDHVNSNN

[2] = molecular target: T1, murine PF4 complexed to heparin; test: ELISA, mPF4 complexed to heparin
Procedure: (§1) The binding of antibody to either PF4, PF4 variants, PF4 bound to various GAGs or other chemokines complexed to heparin, was measured using an ELISA-based method as previously described (Arepally et al., 1995, Am. J. Clin. Pathol. 104:648). Briefly, to screen hybridoma culture supematants, 96-well microtiter plates were coated overnight at room temperature with 50 micoliters per well of phosphate buffered saline (PBS) containing PF4 (final concentration 10 micrograms per milliliter) in the presence or absence of heparin (0.2 Units/milliliter). The plates were then washed three times with TBS/0.01% Tween-20, blocked with 10% fetal calf serum (FCS) (200 microliters per well) in PBS for 2 hours at room temperature, and washed once more. Culture supernatant was added (50 microliters per well) for 1 hour at room temperature. Non-bound antibody was removed by washing, and 50 microliters per well of alkaline-phosphatase conjugated goat anti-mouse IgG, diluted 1:1000 in 10% FCS/PBS was added for 1 hour at room temperature. […] The binding of KKO to PF4 and related chemokines and the binding of KKO to PF4 bound to various GAGs, was measured in the same manner, except that an incubation volume of 100 microliters per well was used.

[3] = molecular target: T2, hNAP-2 complexed to heparin; test: ELISA, chemokine complexed to heparin
Procedure: as §1

[4] = molecular target: T3, hIL-8 complexed to heparin; test: ELISA, chemokine complexed to heparin
Procedure: as §1

hPF4/heparin complex [5] = molecular target: T4, hPF4/heparin complex; test: ELISA, wells coated with hPF4/heparin
Procedure: as §1, with “temperature.” for “temperature. Non-bound antibody was removed by washing, and 50 microliters per well of alkaline-phosphatase conjugated goat anti-mouse IgG, diluted 1:1000 in 10% FCS/PBS was added for 1 hour at room temperature.”
(§2) The relative specificity of KKO was determined by adding various dilutions of KKO to wells coated with hPF4/heparin complex or hPF4 alone. […] At concentrations less than 0.14 micrograms per milliliter, the ratio of binding of KKO to PF4/heparin complex vs. binding to PF4 alone as determined by A₄₀₅ was greater than 400. […]

hPF4/heparin complex [6] = molecular target: T4, hPF4/heparin complex; test: ELISA, wells coated with hPF4/heparin or hPF4 alone
Procedure: as §1

hPF4/heparin complex [7] = molecular target: T4, hPF4/heparin complex; test: ELISA, KKO at concentrations less than 0.14 micrograms per milliliter
Procedure: as §1, with “temperature.” for “temperature. Non-bound antibody was removed by washing, and 50 microliters per well of alkaline-phosphatase conjugated goat anti-mouse IgG, diluted 1:1000 in 10% FCS/PBS was added for 1 hour at room temperature.”
as §2

Row | 14C-serotonin release induced by KKO [1] | binding result [2] | binding result [3] | binding result [4] | EC50 (hPF4/heparin complex [5]) | A405 ratio to hPF4/heparin complex versus hPF4 alone (hPF4/heparin complex [6]) | ratio of binding to PF4/heparin complex vs. binding to PF4 alone (A405) (hPF4/heparin complex [7]) | Molecule
1 | < 5 % release | – | – | – | – | – | – | Fc-gamma RIIA blocking antibody mAb IV.3
2 | – | no binding | no binding | no binding | 0.036 µg/mL | > 30 ratio | > 400 ratio | murine monoclonal antibody KKO (antibody, V domains shown, Murine IgG2b kappa purified from ascites) VH: EVQLQQSGAELVKPGASVKLSCKASGYTFTNYFIYWVKQRPGQGLEWIGEINPRNGDTDFNEKFESRATLTVDKSSSTAYMQLSSLTSEDSAIYYCTRSPYGNNYGFTYWGQGTLVTVSA VL: DIQMIQSQKFMSTSVGDRVTVTCKASQNVGTNVAWYQQKPGQSPNALIYSASYRYSGVPDRFTGSGSGTDFTLTITNVQSEDLADYFCQQYNSYPLTFGTGTKLEIK
